Common to all, as to experiment: cell-based or functional assay
The target of experiment [1] is T1, human intermediate-affinity IL-2 receptor complex, IL-2 CD122/CD132 (β/γ), on cells (human, UniProt P14784 27-551; P31785 23-369).
T1 sequence (looked up) 1: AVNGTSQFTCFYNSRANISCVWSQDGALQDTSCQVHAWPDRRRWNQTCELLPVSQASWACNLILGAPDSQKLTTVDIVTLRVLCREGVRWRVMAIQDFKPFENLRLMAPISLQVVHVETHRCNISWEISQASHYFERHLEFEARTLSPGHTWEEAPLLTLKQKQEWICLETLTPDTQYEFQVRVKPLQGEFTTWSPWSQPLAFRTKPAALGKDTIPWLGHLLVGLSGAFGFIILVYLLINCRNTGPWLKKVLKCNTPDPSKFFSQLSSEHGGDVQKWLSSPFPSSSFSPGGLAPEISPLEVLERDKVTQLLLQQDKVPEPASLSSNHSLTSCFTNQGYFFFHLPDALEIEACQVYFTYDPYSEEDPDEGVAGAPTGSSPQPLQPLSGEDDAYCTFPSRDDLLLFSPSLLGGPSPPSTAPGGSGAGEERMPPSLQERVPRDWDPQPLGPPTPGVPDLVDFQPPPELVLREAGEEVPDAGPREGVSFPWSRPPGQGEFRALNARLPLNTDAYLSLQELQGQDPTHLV
T1 sequence (looked up) 2: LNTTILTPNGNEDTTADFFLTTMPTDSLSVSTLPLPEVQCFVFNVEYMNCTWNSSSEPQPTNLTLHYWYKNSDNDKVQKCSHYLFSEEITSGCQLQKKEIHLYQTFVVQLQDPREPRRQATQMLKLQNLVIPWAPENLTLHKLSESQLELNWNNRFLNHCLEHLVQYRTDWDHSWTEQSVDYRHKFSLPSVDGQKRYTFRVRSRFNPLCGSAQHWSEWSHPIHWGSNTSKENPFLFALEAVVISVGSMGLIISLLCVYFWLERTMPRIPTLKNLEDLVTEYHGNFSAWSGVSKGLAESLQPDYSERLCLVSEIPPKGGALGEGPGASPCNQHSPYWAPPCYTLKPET

For experiment [2], the target named is T2, human high-affinity IL-2 receptor complex, IL-2 CD25/CD122/CD132 (α/β/γ), on cells (human, UniProt P01589 22-272; P14784 27-551; P31785 23-369).
T2 sequence (looked up) 1: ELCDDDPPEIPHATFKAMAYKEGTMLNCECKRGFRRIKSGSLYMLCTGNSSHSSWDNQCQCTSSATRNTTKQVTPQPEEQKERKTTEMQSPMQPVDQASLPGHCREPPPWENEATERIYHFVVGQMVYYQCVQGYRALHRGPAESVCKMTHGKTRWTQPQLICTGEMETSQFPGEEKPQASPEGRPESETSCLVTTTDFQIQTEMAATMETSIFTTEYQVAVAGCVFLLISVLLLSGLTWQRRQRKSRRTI
T2 sequence (looked up) 2: T1 sequence (looked up) 1
T2 sequence (looked up) 3: T1 sequence (looked up) 2

Experiment [3] has as its target T1, human intermediate-affinity IL-2 …. This is another data set of the same source.
The target is the same in experiment [4]. This is another data set of the same source.
Experiment [5] concerns the target T2, human high-affinity IL-2 receptor …. This is another data set of the same source.
Experiment [6] has the same target. This is another data set of the same source.
In experiment [7] the target is T1, human intermediate-affinity IL-2 …. The source holds these as a separate data set.
Experiment [8] addresses T2, human high-affinity IL-2 receptor …. The source holds these as a separate data set.
The target is the same in experiment [9]. The source holds these as a separate data set.
Experiment [10] concerns the target T1, human intermediate-affinity IL-2 …. The source holds these as a separate data set.

Read-outs that look alike come from different tables or passages of the source.

B1: Fc-IL2v (Fc fusion)
chain: GGGGSGGGGSAPASSSTKKTQLQLEHLLLDLQMILNGINNYKNPKLTRMLTAKFAMPKKATELKHLQCLEEELKPLEEVLNGAQSKNFHLRPRDLISNINVIVLELKGSETTFMCEYADETATIVEFLNRWITFAQSIISTLT
Turning to B1, the “EC50 (read off the curve), pSTAT5 MFI in NK cells of hPBMC” value in experiment [1], in experiment [3] and in experiment [10] was about 3 nM in each case. In addition, the “EC50 (read off the curve), pSTAT5 MFI in Treg cells of hPBMC” value in experiment [2], in [6] and in experiment [9] was about 8 nM in each case. In experiment [4], the “EC50, pSTAT5 in CD8 T cells of hPBMCs (flow cytometry)” value is 11.3 nM. In addition, the “EC50, pSTAT5 in NK cells of hPBMCs (flow cytometry)” value in experiment [4] is 1.53 nM. Besides, the “EC50, pSTAT5 in Treg cells of hPBMCs (flow cytometry)” value in experiment [5] is 5.88 nM. Moreover, in experiment [7], the “EC50, pSTAT5 induction in HH T cells (ELISA)” value amounted to 24.9 nM. The “EC50, pSTAT5 induction in iTreg cells (ELISA)” value in experiment [8] was 0.31 nM.

Source of the values: patent publication US20220033784A1 (priority 2020, published 2022).
